Laboratory results as given in the DeepSol protein solubility set.

assay: soluble on expression in E. coli; label from the status in PepcDB or PDB records

| Sequence | soluble on expression in E. coli |
| --- | --- |
| MLGSSSLSIRTTDDKSLFARTMDFTMEPDSKVIIVPRNYGIRLLEKENVVINNSYAFVGMGSTDITSPVLYDGVNEKGLMGAMLYYATFATYADEPKKGTRGINPVYVISQVLGNCVTVDDVIEKLTSYTLLNEANIILGFAPPLHYTFTDASGESIVIEPDKTGITIHRKTIGVMTNSPGYEWHQTNLRAYIGVTPNPPQDIMMGDLDLTPFGQGAGGLGLPGDFTPSARFLRVAYWKKYTEKAKNETEGVTNLFHILSSVNIPKGVVLTNEGKTDYTIYTSAMCAQSKNYYFKLYDNSRISAVSLMAENLNSQDLITFEWDRKQDIKQLNQVNVMS | soluble |
| MLGVGKIGGAIVKSLLSCGAVVTGTGRRRETLERISRLGAEATVDNRLAAKVSDVVILSVKPYQLPRLLEEIRDVMEGKIVVSVVAGVRLSTLSRALEGSHVYRAMPNINALIGRSTTAVAEYTGDKRASFVESILSCMGSVYWIPEEWMDVWTALVGSMPAYVAVMIDSLTLGGVSAGLPREVAFKAVIDTLGATAEHLGKRDIHPSVLRDEVTTPAGTTIEGLKVIEGEGVDAALIRTVEAAARRAAAIGEAIDNEVRRSLNLRAAALEHHHHHH | not soluble |
| MLHILINFINFGKMFTLGNIMKFKKIYIELSDICGLKCDFCPSQKGIRGVMSEEKFQNLAYEISNKAELFTFHLLGDPLLLPNLENYLKIAKDEAMKLEITTSGFYLNSKNQALLLGYENIHQINISLMSFLSQSKISLEQYFKPILELCKKHLEQKSLSFINLRLWNLDANFKAPKSNLKIYEFLAKEFEAKIDANLSKNRLQRHILLHQNKLFKWPNLKDEPLYKKGKCHALKEQIGILSDGSLVPCCLDTKADINLGNVFENNFDKLFRSPRIKMMKKAFEEDKRIEKLCQTCEFFKARLGD | not soluble |
| MLHITAAKARAGGQIGGVFCLAQCSLNVLVSGMQTQPLPPLISARPVGRGARSNDAGRFEPLERVAEHDGWEREEELPPLRTQVSLETARSLISYNRSPDLPFDRSINPYRGCEHGCSYCFARPSHAYLGLSPGLDFETRLVARPNAAEVLRAELSARRYKVAPIAIGTNTDPYQPLEKTHAITRACLQVLAEFNHPVAIVTRGALIERDLDILAPMAARGLVRVGISLTTLDAALARRMEPRAPSPKRRLAMIRALNGAGVPVRVMTSPLIPGLTDHELESLLAAGAEAGADTASWIMLRLPREVSPLWQEWLAEHAPARAAKVMARLREMHGGRDYDPRWGHRMRGEGEYAQMIAKRFRAACKRIGLAQEAPALRCDLFRVPPQPGDQLSLF | not soluble |
| MLHIVKHLEKLPLLSAYLLDGDVVLLTENAVYAAAVHSPYQASINDQNLWLVLYEDLHARGWLEKCDPRISVVTMSDFVDLTVTHDKSITW | not soluble |
| MLIEERLAKIQKIVNEQKSISMEALAEQVSVSKDTIRRDLIRLEKEGHLKRTHGGAISVQSEATIYDYAQRIVKHPEKKQAIAQKVWANIPKQASIFFDSSTTVEAAIRAMENSPIHAITNSLSHALLLAQMDQTKITVLPGQLHKQQLFLFGAETVAKVGEFAPDYTLLGVFALSEQGLFIHTEEEGQVKRRMIQQGKQVIALADQTKLNKTGLFKICELTEIDCLVTDTRPDEKFCEQLAQAGVTLIVADELEHHHHHH | soluble |
| MLIEGANSHGSGILLQRHGNTYVILTAYHVIEKGGQYTVKTVDGQRYAVRPSSIRRLPSVDLATLEIESNRDYTLATLGNSGEAVEGMPVFVAGFPAQEASVLGGIYQFTEGRLTANASRPIQDGYALVYSNPTLPGMSGGPVLDENGRLIGIHGSADIASTLVQEGSGASTVFVKRGFNLGIPIHTYLGLATPSRQTTVLPALASMKAADYFLAAEVAFRRKNFAAAIENYSQAIARNPNYSEAYLGRAVAQIFALVPNQDFDQLGEELGTKYLSRLTQGNPLLKDAFPPNPPTPLLETFMRTMAERPGTIQPDIAKAIALNPQYTEAYGVSSFLNLLLGNFGNAIAESERALALRPNNSDLQMIHSLALFLSGDFRRSIAVFDRLITANPQNTDYHLLRGVAAFMMGDYALSRPSWTALTQLTPRNPMPFALRGVTYLLEENFKASLPDLRQAAELYRQQGDMQSYNQMMQAIRQIESRLEHHHHHH | not soluble |
| MLIILLLTVLTVYLVYELYWKRRNFPPGPCPLPVFGNLLSIANPPPGYEAFERWTKKYGDIYTFWIGNTPHIMINTWDKIKETYIRDAETYTNKVRLPALDLFRGGEYGIIDSNGATWREHRRFALSTMRDFGLGKNLMQENILMEVQDVFARLDAKLGSETDIPEVFDHAVANVVNQLLFGYRFVGPKESEYQELKRIIEAPTDLFGKPHMFLAMNIPVIAKLMPEFMYEGPFKDFRDTAFAFFNKQIEAHRQEVDLNDLNSESTDFVETFLKEQKRRESEGDSETFSNVQLSNVCMDLWFAGLNTTTNTITWAISYILHHPEVQDKVHEEMDKVIGSDRLITTADKNDLPYFNAFINEAQRGINIVPLNLQHATTRDTVINGFKIPKGTGVVAQISTVMNNEEVFPDPHTFNPDRFIDEHGKLKRVEELAPFSVGKRSCPGEGLARMELFLFIANFLNRYKIYPSKEGPPSMDKSNGALIAPRLFSATLKRRS | not soluble |
| MLIPARMSEAEEQRWVTVMLDKLAAQESKRRLGDAELAERAERLSLQYFDGRARPTAVRWVTNQNTRWGSCTPSEGSIRLSHRLQGMPEYVVDYVLLHELAHLLVPGHGPRFWRLLEAYPRTERARGYLEGVVAADRLPHQPAPGAELEHHHHHH | not soluble |
| MLIVGINGSPKKEGNTKYLINTVLEEAKSQGVETMVLEVGELLNSVKNPFCVVCSNPCSSICYKGTKLEEAYEILKKADAIVMGSPVYFGSVSAQLKAFFDKTRKLRSEKALYNKFACGVTVGGARFGGQETTMKALHDIMLVHGMTIVGDGYVGDDCGHHGVCAQQPADKDEFAIKRAKILGRRLVDVCKKAGA | not soluble |
| MLKADYIPYTLKFKEPAGTSRGVLHTKQTYFVRVYDDTFPSRAGYGEAALFRGLSAEEGADYEERLAEVCNGVCGFTPDAWQAYPSLCFGMETALADFEGGGLLFPSAFTSGEAGIPINGLI | not soluble |
| MLKFRTVHGGLRLLGIRRTSTAPAASPNVRRLEYKPIKKVMVANRGEIAIRVFRACTELGIRTVAIYSEQDTGQMHRQKADEAYLIGRGLAPVQAYLHIPDIIKVAKENNVDAVHPGYGFLSERADFAQACQDAGVRFIGPSPEVVRKMGDKVEARAIAIAAGVPVVPGTDAPITSLHEAHEFSNTYGFPIIFKAAYGGGGRGMRVVHSYEELEENYTRAYSEALAAFGNGALFVEKFIEKPRHIEVQILGDQYGNILHLYERDCSIQRRHQKVVEIAPAAHLDPQLRTRLTSDSVKLAKQVGYENAGTVEFLVDRHGKHYFIEVNSRLQVEHTVTEEITDVDLVHAQIHVAEGRSLPDLGLRQENIRINGCAIQCRVTTEDPARSFQPDTGRIEVFRSGEGMGIRLDNASAFQGAVISPHYDSLLVKVIAHGKDHPTAATKMSRALAEFRVRGVKTNIAFLQNVLNNQQFLAGTVDTQFIDENPELFQLRPAQNRAQKLLHYLGHVMVNGPTTPIPVKASPSPTDPVVPAVPIGPPPAGFRDILLREGPEGFARAVRNHPGLLLMDTTFRDAHQSLLATRVRTHDLKKIAPYVAHNFSKLFSMENWGGATFDVAMRFLYECPWRRLQELRELIPNIPFQMLLRGANAVGYTNYPDNVVFKFCEVAKENGMDVFRVFDSLNYLPNMLLGMEAAGSAGGVVEAAISYTGDVADPSRTKYSLQYYMGLAEELVRAGTHILCIKDMAGLLKPTACTMLVSSLRDRFPDLPLHIHTHDTSGAGVAAMLACAQAGADVVDVAADSMSGMTSQPSMGALVACTRGTPLDTEVPMERVFDYSEYWEGARGLYAAFDCTATMKSGNSDVYENEIPGGQYTNLHFQAHSMGLGSKFKEVKKAYVEANQMLGDLIKVTPSSKIVGDLAQFMVQNGLSRAEAEAQAEELSFPRSVVEFLQGYIGVPHGGFPEPFRSKVLKDLPRVEGRPGASLPPLDLQALEKELVDRHGEEVTPEDVLSAAMYPDVFAHFKDFTATFGPLDSLNTRLFLQGPKIAEEFEVELERGKTLHIKALAVSDLNRAGQRQVFFELNGQLRSILVKDTQAMKEMHFHPKALKDVKGQIGAPMPGKVIDIKVVAGAKVAKGQPLCVLSAMKMETVVTSPMEGTVRKVHVTKDMTLEGDDLILEIE | soluble |
| MLKIISANVNGIRSAYKKGFYEYIAASGADIVCVQELKAQEADLSADMKNPHGMHGHWHCAEKRGYSGVAVYSKRKPDNVQIGMGIEEFDREGRFVRCDFGRLSVISLYLPSGSSAEERQQVKYRFLDAFYPMLEAMKNEGRDIVVCGDWNIAHQNIDLKNWKGNQKNSGFLPEEREWIGKVIHKLGWTDMWRTLYPDVPGYTWWSNRGQAYAKDVGWRIDYQMVTPELAAKAVSAHVYKDEKFSDHAPLVVEYDYAAE | soluble |
